Assay results published in patent US20040014138A1 (published 2004).

Target: T1, bovine serum albumin (bovine, UniProt P02769 25-607)
T1 construct: Negative control coating protein in the enzyme capture assay; also called BSA
Test: enzyme capture assay, coated wells, APC-spiked plasma, chromogenic read-out
Protocol: As negative controls, microtiter plate wells were coated with either 5 μg/ml HPC4 monoclonal antibody or 1% bovine serum albumin (BSA) in the same buffer. The plates were then blocked for 1 hour at 37° C. or overnight at 4° C. with 200 μl of blocking buffer (coating buffer containing 1% BSA). The solutions were gently removed from the plates by vacuum.
To generate a standard curve for the quantitative measurement of APC in plasma, increasing amounts of APC (from 0 to 250 ng/ml) were spiked into normal pooled plasma containing 20 mM Hepes, pH 7.5, 2 units/ml heparin, 20 mM benzamidine, and 10 mM CaCl₂. The spiked plasma (100 μl) were transferred to the plates and incubated at room temperature for 1 hour. The wells were then washed three times with wash buffer (20 mM Hepes, pH 7.5, 150 mM NaCl, 0.05% Tween-20, and 5 mM CaCl₂). The chromogenic activity of APC was determined by the addition of 100 μl of Spectrozyme PCa (1 mM) in 20 mM Hepes, pH 7.5, 150 mM NaCl, 5 mM CaCl₂. The plates were immediately placed at 37° C., and substrate hydrolysis was monitored at 405 nm over time using a Vmax microplate reader (Molecular Devices Corp, Sunnyvale, Calif.). All samples were assayed in duplicates or triplicates.

T1 sequence (P02769 25-607 limits assumed): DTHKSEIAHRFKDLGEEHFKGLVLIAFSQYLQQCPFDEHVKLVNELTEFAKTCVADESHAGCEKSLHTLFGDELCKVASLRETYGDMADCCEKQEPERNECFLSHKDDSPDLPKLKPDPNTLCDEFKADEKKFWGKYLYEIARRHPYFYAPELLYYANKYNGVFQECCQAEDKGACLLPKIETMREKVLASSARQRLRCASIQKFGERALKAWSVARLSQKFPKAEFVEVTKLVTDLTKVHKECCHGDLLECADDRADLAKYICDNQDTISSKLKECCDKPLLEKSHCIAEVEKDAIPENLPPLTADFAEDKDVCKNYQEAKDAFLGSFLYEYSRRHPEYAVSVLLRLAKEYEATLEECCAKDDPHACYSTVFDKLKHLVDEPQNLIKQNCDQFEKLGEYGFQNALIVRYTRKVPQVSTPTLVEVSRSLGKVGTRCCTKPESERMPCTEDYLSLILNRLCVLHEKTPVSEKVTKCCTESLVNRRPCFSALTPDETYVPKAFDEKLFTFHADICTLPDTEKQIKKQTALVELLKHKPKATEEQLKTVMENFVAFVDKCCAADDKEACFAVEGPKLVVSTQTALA

binding result: no binding (tested: 1% coating)
B1: human activated protein C (enzyme)
chain 1: ANSFLEELRHSSLERECIEEICDFEEAKEIFQNVDDTLAFWSKHVDGDQCLVLPLEHPCASLCCGHGTCIDGIGSFSCDCRSGWEGRFCQREVSFLNCSLDNGGCTHYCLEEVGWRRCSCAPGYKLGDDLLQCHPAVKFPCGRPWKRMEKKRSHL
chain 2: LIDGKMTRRGDSPWQVVLLDSKKKLACGAVLIHPSWVLTAAHCMDESKKLLVRLGEYDLRRWEKWELDLDIKEVFVHPNYSKSTTDNDIALLHLAQPATLSQTIVPICLPDSGLAERELNQAGQETLVTGWGYHSSREKEAKRNRTFVLNFIKIPVVPHNECSEVMSNMVSENMLCAGILGDRQDACEGDSGGPMVASFHGTWFLVGLVSWGEGCGLLHNYGVYTKVSRYLDWIHGHIRDKEAPQKSWAP
notes: the whole natural protein is named as one piece; also called APC
